Results on 28 molecules are retold here after patent US20260242419A1, “A CYCLIC PEPTIDE FOR TRAPPING INTERLEUKIN-1 BETA” (Merck Sharp & Dohme LLC, priority 2023, published 2026).

Starred links: 1 amine or outer side, 2 acyl side, 3 side chain; linkers in the order of their positions; H or OH if unused. Non-standard residues stand in square brackets, D forms with d. orbOHorPhe4COOH = 4-[(1R,2S)-2-amino-2-carboxy-1-hydroxy-ethyl]benzoic acid, O=C([C@@H](N[*:1])[C@H](O)c1ccc(C(=O)[*:3])cc1)[*:2]; Phe4PyrimOMe = (S)-2-amino-3-(4-(2-methoxypyrimidin-5-yl)phenyl)propanoic acid, COc1ncc(-c2ccc(C[C@H](N[*:1])C(=O)[*:2])cc2)cn1; Phe4ImMe = (S)-2-amino-3-(4-(1-methyl-1H-imidazol-4-yl)phenyl)propanoic acid, Cn1cnc(-c2ccc(C[C@H](N[*:1])C(=O)[*:2])cc2)c1; Phe42ImMe = (S)-2-amino-3-(4-(1-methyl-1H-imidazol-2-yl)phenyl)propanoic acid, Cn1ccnc1-c1ccc(C[C@H](N[*:1])C(=O)[*:2])cc1; AlaPyrim4CONH2 = (2S)-2-amino-3-(2-carbamoylpyrimidin-5-yl)propanoic acid, NC(=O)c1ncc(C[C@H](N[*:1])C(=O)[*:2])cn1; SbOH4Pal = (2S,3S)-2-amino-3-hydroxy-3-(4-pyridyl)propanoic acid, O=C([C@@H](N[*:1])[C@@H](O[*:3])c1ccncc1)[*:2]; sbOH4Pal = (2S,3S)-2-amino-3-hydroxy-3-(4-pyridyl)propanoic acid, O=C([C@@H](N[*:1])[C@@H](O[*:3])c1ccncc1)[*:2]; RbOH4Pal = (2S,3R)-2-amino-3-hydroxy-3-(4-pyridyl)propanoic acid, O=C([C@@H](N[*:1])[C@H](O[*:3])c1ccncc1)[*:2]; AlaPiperazAc = (S)-3-(4-acetylpiperazin-1-yl)-2-aminopropanoic acid, CC(=O)N1CCN(C[C@H](N[*:1])C(=O)[*:2])CC1; daMeSMe = (2R)-2-amino-3-methoxy-2-methyl-propanoic acid, COC[C@@](C)(N[*:1])C(=O)[*:2]; alTOMe = (2S,3S)-2-amino-3-methoxy-butanoic acid, CO[C@@H](C)[C@H](N[*:1])C(=O)[*:2]; ThrOMe = (2S,3R)-2-amino-3-methoxy-butanoic acid, CO[C@H](C)[C@H](N[*:1])C(=O)[*:2]; Ala(2-carboxypyrimidin-5-yl) = N[C@@H](Cc1cnc(C(=O)O)nc1)C(=O)O; dPro(4R-(4-pyridylmethyl)) = O=C(O)[C@H]1C[C@@H](Cc2ccncc2)CN1; Trp(βS-Me,4-F) = C[C@@H](c1c[nH]c2cccc(F)c12)[C@H](N)C(=O)O; Bip(4'-COOH) = N[C@@H](Cc1ccc(-c2ccc(C(=O)O)cc2)cc1)C(=O)O; dPro(4R-Bzl(4-F)) = O=C(O)[C@H]1C[C@@H](Cc2ccc(F)cc2)CN1; dPro(3S-(4-F-Bn)) = O=C(O)[C@@H]1NCC[C@@H]1Cc1ccc(F)cc1; Ala(pyrimidin-5-yl) = N[C@@H](Cc1cncnc1)C(=O)O; Phe(4-COOH) = N[C@@H](Cc1ccc(C(=O)O)cc1)C(=O)O; Bip = N[C@@H](Cc1ccc(-c2ccccc2)cc1)C(=O)O; Pro(cis-4-F) = O=C(O)[C@@H]1C[C@H](F)CN1; Met(O2) = CS(=O)(=O)CC[C@H](N)C(=O)O; d(αMeF) = C[C@@](N)(Cc1ccccc1)C(=O)O; Dap(CONH2) = NC(=O)NC[C@H](N)C(=O)O; hTyr = N[C@@H](CCc1ccc(O)cc1)C(=O)O; cisHyp = O=C(O)[C@@H]1C[C@H](O)CN1; d(αMeD) = C[C@@](N)(CC(=O)O)C(=O)O; 4Pal = N[C@@H](Cc1ccncc1)C(=O)O; aThr = C[C@H](O)[C@H](N)C(=O)O; NMeDab = CN[C@@H](CCN)C(=O)O; Dab = NCC[C@H](N)C(=O)O; Aib = CC(C)(N)C(=O)O

The test concerns the target Recombinant human IL-1β (BioLegend 579404) (human, UniProt P01584 117-269). As to the kind of experiment: cell-based or functional assay.
For cyclo([Bip(4'-COOH)][4Pal][Phe(4-COOH)]G[Pro(cis-4-F)][Trp(βS-Me,4-F)][Aib]SW[d(αMeF)]EQ[Dab]G[dPro(4R-(4-pyridylmethyl))]) (ring closure inferred) [SEQ ID NO 258], the “MRC5 IC50” value stood at 0.02 nM.

Regarding cyclo([Bip(4'-COOH)][4Pal][Phe(4-COOH)]G[Pro(cis-4-F)][Trp(βS-Me,4-F)][Aib]SW[d(αMeD)][alTOMe]Q[Dab]G[dPro(4R-(4-pyridylmethyl))]) (ring closure inferred) [SEQ ID NO 254], the “MRC5 IC50” value turned out to be 0.013 nM.

On to cyclo([Bip(4'-COOH)][4Pal][Phe(4-COOH)]G[Pro(cis-4-F)][Trp(βS-Me,4-F)][Aib]SW[Aib][Ala(pyrimidin-5-yl)]Q[Dap(CONH2)]G[dPro(4R-(4-pyridylmethyl))]) (ring closure inferred) [SEQ ID NO 270], for which the “MRC5 IC50” value is 0.023 nM.

For cyclo([Bip][4Pal][Phe(4-COOH)]G[Pro(cis-4-F)][Trp(βS-Me,4-F)][Aib]SW[Aib][dD]Q[Dab]G[dPro(4R-(4-pyridylmethyl))]) (ring closure inferred) [SEQ ID NO 265], the “MRC5 IC50” value is 0.022 nM.

As for cyclo([Bip(4'-COOH)][4Pal][Phe(4-COOH)]G[Pro(cis-4-F)][Trp(βS-Me,4-F)][Aib]SW[Aib][Met(O2)]Q[Dab]G[dPro(4R-(4-pyridylmethyl))]) (ring closure inferred) [SEQ ID NO 266], the “MRC5 IC50” value came to 0.019 nM.

For cyclo([Bip(4'-COOH)][4Pal][Phe(4-COOH)]G[Pro(cis-4-F)][Trp(βS-Me,4-F)][Aib]SW[Aib][RbOH4Pal]Q[Dab]G[dPro(4R-Bzl(4-F))]) (ring closure inferred) [SEQ ID NO 273], the “MRC5 IC50” value was 0.013 nM.

Consider cyclo([Phe4F][4Pal][Phe(4-COOH)]G[Pro(cis-4-F)][Trp(βS-Me,4-F)][Aib]SW[d(αMeD)][Ala(pyrimidin-5-yl)]Q[Dab]G[dPro(3S-(4-F-Bn))]) (ring closure inferred) [SEQ ID NO 277], for which the “MRC5 IC50” value stood at 0.023 nM.

As for cyclo([Bip(4'-COOH)][4Pal][Phe(4-COOH)]G[Pro(cis-4-F)][Trp(βS-Me,4-F)][Aib]SW[d(αMeF)][aThr]Q[Dab]G[dPro(4R-(4-pyridylmethyl))]) (ring closure inferred) [SEQ ID NO 257], the “MRC5 IC50” value worked out at 0.021 nM.

For cyclo([Bip(4'-COOH)][4Pal][Phe(4-COOH)]G[Pro(cis-4-F)][Trp(βS-Me,4-F)][Aib]SW[d(αMeF)]DQ[Dab]G[dPro(4R-(4-pyridylmethyl))]) (ring closure inferred) [SEQ ID NO 259], the “MRC5 IC50” value is 0.014 nM.

Regarding cyclo([Bip(4'-COOH)][4Pal][Phe(4-COOH)]G[Pro(cis-4-F)][Trp(βS-Me,4-F)][Aib]SW[daMeSMe][aThr]Q[Dab]G[dPro(4R-(4-pyridylmethyl))]) (ring closure inferred) [SEQ ID NO 261], the “MRC5 IC50” value came to 0.017 nM.

Take cyclo([Bip(4'-COOH)][4Pal][Phe(4-COOH)]G[Pro(cis-4-F)][Trp(βS-Me,4-F)][Aib]SW[Aib][Ala(2-carboxypyrimidin-5-yl)]Q[Dab]G[dPro(4R-(4-pyridylmethyl))]) (ring closure inferred) [SEQ ID NO 268]: the “MRC5 IC50” value came out at 0.014 nM.

Take cyclo([Bip(4'-COOH)][4Pal][Phe(4-COOH)]G[Pro(cis-4-F)][Trp(βS-Me,4-F)][Aib]SW[Aib][SbOH4Pal]Q[Dab]G[dPro(4R-Bzl(4-F))]) (ring closure inferred) [SEQ ID NO 272]: the “MRC5 IC50” value amounted to 0.018 nM.

For cyclo([Bip(4'-COOH)][RbOH4Pal][Phe(4-COOH)]G[Pro(cis-4-F)][Trp(βS-Me,4-F)][Aib]SW[Aib][Ala(pyrimidin-5-yl)]Q[Dab]G[dPro(4R-Bzl(4-F))]) (ring closure inferred) [SEQ ID NO 274], the “MRC5 IC50” value was 0.026 nM.

Take cyclo([Bip(4'-COOH)][4Pal][Phe(4-COOH)]G[Pro(cis-4-F)][Trp(βS-Me,4-F)][Aib]EW[Aib]HQ[Dab]G[dPro(4R-Bzl(4-F))]) (ring closure inferred) [SEQ ID NO 276]: the “MRC5 IC50” value is 0.017 nM.

Turning to cyclo([Bip(4'-COOH)][4Pal][Phe(4-COOH)]G[Pro(cis-4-F)][Trp(βS-Me,4-F)][Aib]SW[Aib][AlaPyrim4CONH2]Q[Dab]G[dPro(4R-(4-pyridylmethyl))]) (ring closure inferred) [SEQ ID NO 267], the “MRC5 IC50” value came to 0.014 nM.

For cyclo([Bip(4'-COOH)][4Pal][Phe(4-COOH)]G[Pro(cis-4-F)][Trp(βS-Me,4-F)][Aib]SW[Aib][Ala(pyrimidin-5-yl)]Q[NMeDab]G[dPro(4R-(4-pyridylmethyl))]) (ring closure inferred) [SEQ ID NO 262], the “MRC5 IC50” value is 0.02 nM.

Take cyclo([Bip(4'-COOH)][4Pal][Phe(4-COOH)]G[Pro(cis-4-F)][Trp(βS-Me,4-F)][Aib]SW[d(αMeD)][sbOH4Pal]Q[Dab]G[dPro(3S-(4-F-Bn))]) (ring closure inferred) [SEQ ID NO 263]: the “MRC5 IC50” value was found to be 0.017 nM.

On to cyclo([Phe4PyrimOMe][4Pal][Phe(4-COOH)]G[Pro(cis-4-F)][Trp(βS-Me,4-F)][Aib]SW[d(αMeD)][Ala(pyrimidin-5-yl)]Q[Dab]G[dPro(3S-(4-F-Bn))]) (ring closure inferred) [SEQ ID NO 281], for which the “MRC5 IC50” value came out at 0.012 nM.

Take cyclo([Bip(4'-COOH)][4Pal][Phe(4-COOH)]G[Pro(cis-4-F)][Trp(βS-Me,4-F)][Aib]SW[d(αMeD)][hTyr]Q[Dab]G[dPro(4R-(4-pyridylmethyl))]) (ring closure inferred) [SEQ ID NO 256]: the “MRC5 IC50” value was 0.012 nM.

Regarding cyclo([Bip(4'-COOH)][4Pal][orbOHorPhe4COOH]G[Pro(cis-4-F)][Trp(βS-Me,4-F)][Aib]SW[Aib][Ala(pyrimidin-5-yl)]Q[Dab]G[dPro(4R-Bzl(4-F))]) (ring closure inferred) [SEQ ID NO 275], the “MRC5 IC50” value is 0.018 nM.

cyclo([Bip(4'-COOH)][4Pal][Phe(4-COOH)]G[Pro(cis-4-F)][Trp(βS-Me,4-F)][Aib]SW[daMeSMe][Ala(pyrimidin-5-yl)]Q[Dab]G[dPro(4R-(4-pyridylmethyl))]) (ring closure inferred) [SEQ ID NO 260]: the “MRC5 IC50” value was found to be 0.013 nM.

For cyclo([Bip(4'-COOH)][4Pal][Phe(4-COOH)]G[Pro(cis-4-F)][Trp(βS-Me,4-F)][Aib]SW[d(αMeD)][ThrOMe]Q[Dab]G[dPro(4R-(4-pyridylmethyl))]) (ring closure inferred) [SEQ ID NO 255], the “MRC5 IC50” value was 0.011 nM.

As to cyclo([Phe4ImMe][4Pal][Phe(4-COOH)]G[Pro(cis-4-F)][Trp(βS-Me,4-F)][Aib]SW[d(αMeD)][Ala(pyrimidin-5-yl)]Q[Dab]G[dPro(3S-(4-F-Bn))]) (ring closure inferred) [SEQ ID NO 279], the “MRC5 IC50” value was 0.013 nM.

As for cyclo([Phe42ImMe][4Pal][Phe(4-COOH)]G[Pro(cis-4-F)][Trp(βS-Me,4-F)][Aib]SW[d(αMeD)][Ala(pyrimidin-5-yl)]Q[Dab]G[dPro(3S-(4-F-Bn))]) (ring closure inferred) [SEQ ID NO 280], the “MRC5 IC50” value was found to be 0.016 nM.

For the molecule cyclo([Bip(4'-COOH)][4Pal][Phe(4-COOH)]G[Pro(cis-4-F)][Trp(βS-Me,4-F)][Aib]EW[Aib][AlaPiperazAc]QSG[dPro(4R-Bzl(4-F))]) (ring closure inferred) [SEQ ID NO 271], the “MRC5 IC50” value worked out at 0.023 nM.

Turning to cyclo(Y[4Pal][Phe(4-COOH)]G[Pro(cis-4-F)][Trp(βS-Me,4-F)][Aib]SW[d(αMeD)][Ala(pyrimidin-5-yl)]Q[Dab]G[dPro(3S-(4-F-Bn))]) (ring closure inferred) [SEQ ID NO 278], the “MRC5 IC50” value came to 0.021 nM.

Consider cyclo([Bip][4Pal][Phe(4-COOH)]G[cisHyp][Trp(βS-Me,4-F)][Aib]SW[d(αMeD)][Ala(pyrimidin-5-yl)]Q[Dab]G[dPro(4R-(4-pyridylmethyl))]) (ring closure inferred) [SEQ ID NO 264], for which the “MRC5 IC50” value stood at 0.017 nM.

Consider cyclo([Bip][4Pal][Phe(4-COOH)]G[Pro(cis-4-F)][Trp(βS-Me,4-F)][Aib]SW[Aib][Ala(2-carboxypyrimidin-5-yl)]Q[Dab]G[dPro(4R-(4-pyridylmethyl))]) (ring closure inferred) [SEQ ID NO 269], for which the “MRC5 IC50” value stood at 0.014 nM.
